Assay results: patent US20260002156

T1: fluorogenic peptide substrate to ADAM10 (Mca-PLAQAV-Dpa-RSSR)
T1 chain: PLAQAVXRSSR

B1: ADAM10 on the surface of HCC cells (HepG2) (protein)
chain: TTSAEKNTCQLYIQTDHLFFKYYGTREAVIAQISSHVKAIDTIYQTTDFSGIRNISFMVKRIRINTTADEKDPTNPFRFPNIGVEKFLELNSEQNHDDYCLAYVFTDRDFDDGVLGLAWVGAPSGSSGGICEKSKLYSDGKKKSLNTGIITVQNYGSHVPPKVSHITFAHEVGHNFGSPHDSGTECTPGESKNLGQKENGNYIMYARATSGDKLNNNKFSLCSIRNISQVLEKKRNNCFVESGQPICGNGMVEQGEECDCGYSDQCKDECCFDANQPEGRKCKLKPGKQCSPSQGPCCTAQCAFKSKSEKCRDDSDCAREGICNGFTALCPASDPKPNFTDCNRHTQVCINGQCAGSICEKYGLEECTCASSDGKDDKELCHVCCMKKMDPSTCASTGSVQWSRHFSGRTITLQPGSPCNDFRGYCDVFMRCRLVDADGPLARLKKAIFSPELYENIAEWIVAHWWAVLLMGIALIMLMAGFIKICSVHTPSSNPKLPPPKPLPGTLKRRRPPQPIQQPQRQRPRESYQMGHMRR
B2: recombinant human ADAM10 (rhADAM10) (protein)
chain: TTSAEKNTCQLYIQTDHLFFKYYGTREAVIAQISSHVKAIDTIYQTTDFSGIRNISFMVKRIRINTTADEKDPTNPFRFPNIGVEKFLELNSEQNHDDYCLAYVFTDRDFDDGVLGLAWVGAPSGSSGGICEKSKLYSDGKKKSLNTGIITVQNYGSHVPPKVSHITFAHEVGHNFGSPHDSGTECTPGESKNLGQKENGNYIMYARATSGDKLNNNKFSLCSIRNISQVLEKKRNNCFVESGQPICGNGMVEQGEECDCGYSDQCKDECCFDANQPEGRKCKLKPGKQCSPSQGPCCTAQCAFKSKSEKCRDDSDCAREGICNGFTALCPASDPKPNFTDCNRHTQVCINGQCAGSICEKYGLEECTCASSDGKDDKELCHVCCMKKMDPSTCASTGSVQWSRHFSGRTITLQPGSPCNDFRGYCDVFMRCRLVDADGPLARLKKAIFSPELYENIAE

Target: T1, fluorogenic peptide substrate to ADAM10 …

Protein | fluorescence intensity (fluorogenic peptide cleavage assay)
B1 | after incubation with HCC cells, the fluorogenic peptide significantly increased the fluorescence intensity, stronger than the recombinant human ADAM10 (rhADAM10) which serves as a positive control
B2 | the recombinant human ADAM10 (rhADAM10) which serves as a positive control
